Test system: Escherichia coli TOP10
Experiment: shrunken log2 fold change of peptide-encoding DNA abundance (4.5 h post-induction vs induction); higher = less antimicrobial activity (less host growth inhibition)
Details: time post-induction: 4.5 h; library: site-saturation at positions 5, 18, 19, 20
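Also: peptides expressed intracellularly from a pBAD plasmid library in pooled LB shake-flask culture, induced with 0.3% L-arabinose, DNA abundance read by NGS, three biological replicates, DESeq2 with apeglm shrinkage.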

| Sequence | shrunken log2 fold change |
| --- | --- |
| RRIRVRPPRLPRPRPRPFGTPRP | -0.0129 |
| RRIRKRPPRLPRPRPRPVSRPRP | 0.652 |
| RRIRRRPPRLPRPRPRPTEGPRP | 0.18 |
| RRIRVRPPRLPRPRPRPYGKPRP | -0.289 |
| RRIRLRPPRLPRPRPRPVVQPRP | 0.0325 |
| RRIRKRPPRLPRPRPRPIEEPRP | 0.566 |
| RRIRHRPPRLPRPRPRPLPMPRP | -0.00404 |
| RRIRGRPPRLPRPRPRPPFFPRP | 0.851 |
| RRIRSRPPRLPRPRPRPSVDPRP | 0.0566 |
| RRIRSRPPRLPRPRPRPQEPPRP | -0.284 |
| RRIRRRPPRLPRPRPRPCMCPRP | -0.382 |
| RRIRCRPPRLPRPRPRPGRDPRP | 0.18 |
| RRIRQRPPRLPRPRPRPRQSPRP | 0.0272 |
| RRIRLRPPRLPRPRPRPQFTPRP | -0.324 |
| RRIRMRPPRLPRPRPRPYMNPRP | -0.737 |
| RRIRWRPPRLPRPRPRPQPRPRP | 0.462 |
| RRIRDRPPRLPRPRPRPAPYPRP | -0.352 |
| RRIRFRPPRLPRPRPRPTMTPRP | -0.0114 |
| RRIRARPPRLPRPRPRPKMEPRP | 0.229 |
| RRIRCRPPRLPRPRPRPERGPRP | 0.472 |
| RRIRMRPPRLPRPRPRPREDPRP | 0.0544 |
| RRIRIRPPRLPRPRPRPMPFPRP | 0.0123 |
| RRIRSRPPRLPRPRPRPYGCPRP | -0.248 |
| RRIRTRPPRLPRPRPRPQRHPRP | 0.19 |
| RRIRLRPPRLPRPRPRPKYMPRP | -0.544 |

| Sequence | shrunken log2 fold change |
| --- | --- |
| RRIRHRPPRLPRPRPRPMYFPRP | -0.00207 |
| RRIRDRPPRLPRPRPRPFMHPRP | -0.148 |
| RRIRRRPPRLPRPRPRPNERPRP | -0.0664 |
| RRIRARPPRLPRPRPRPYNAPRP | -1.2 |
| RRIRDRPPRLPRPRPRPWRPPRP | 0.0967 |
| RRIRGRPPRLPRPRPRPKIQPRP | 0.369 |
| RRIRPRPPRLPRPRPRPMAPPRP | -0.0483 |
| RRIRERPPRLPRPRPRPHWFPRP | -0.128 |
| RRIRRRPPRLPRPRPRPSMYPRP | -0.345 |
| RRIRWRPPRLPRPRPRPQQAPRP | -0.000157 |
| RRIRGRPPRLPRPRPRPASYPRP | -0.14 |
| RRIRSRPPRLPRPRPRPDLHPRP | -0.0732 |
| RRIRDRPPRLPRPRPRPYTMPRP | -0.0014 |
| RRIRGRPPRLPRPRPRPPFWPRP | 1.09 |
| RRIRFRPPRLPRPRPRPYRWPRP | -0.0143 |
| RRIRARPPRLPRPRPRPYHHPRP | -0.826 |
| RRIRPRPPRLPRPRPRPPITPRP | -0.0969 |
| RRIRNRPPRLPRPRPRPNIWPRP | -0.636 |
| RRIRQRPPRLPRPRPRPISSPRP | 0.00776 |
| RRIRTRPPRLPRPRPRPFVHPRP | -0.138 |
| RRIRMRPPRLPRPRPRPYGQPRP | 0.0303 |
| RRIRIRPPRLPRPRPRPDKYPRP | -0.189 |
| RRIRIRPPRLPRPRPRPGQLPRP | 0.0335 |
| RRIRRRPPRLPRPRPRPFIDPRP | -0.162 |
| RRIRDRPPRLPRPRPRPNPQPRP | -0.19 |

| Sequence | shrunken log2 fold change |
| --- | --- |
| RRIRRRPPRLPRPRPRPIWTPRP | 0.181 |
| RRIRERPPRLPRPRPRPHSLPRP | -0.0176 |
| RRIRQRPPRLPRPRPRPGPTPRP | 0.0273 |
| RRIRQRPPRLPRPRPRPNRRPRP | 0.103 |
| RRIRLRPPRLPRPRPRPAFVPRP | 0.205 |
| RRIRGRPPRLPRPRPRPGMEPRP | 1.54 |
| RRIRKRPPRLPRPRPRPEYAPRP | -0.000279 |
| RRIRCRPPRLPRPRPRPFSPPRP | -0.181 |
| RRIRGRPPRLPRPRPRPGSYPRP | -0.242 |
| RRIRERPPRLPRPRPRPYCEPRP | -0.0402 |
| RRIRNRPPRLPRPRPRPFSCPRP | -0.03 |
| RRIRERPPRLPRPRPRPCMPPRP | 0.0888 |
| RRIRIRPPRLPRPRPRPIPYPRP | -0.295 |
| RRIRVRPPRLPRPRPRPTWRPRP | 0.686 |
| RRIRTRPPRLPRPRPRPHYFPRP | -0.914 |
| RRIRSRPPRLPRPRPRPAEVPRP | -0.0708 |
| RRIRCRPPRLPRPRPRPEPSPRP | 0.146 |
| RRIRYRPPRLPRPRPRPVRNPRP | -0.161 |
| RRIRPRPPRLPRPRPRPEKDPRP | -0.0428 |
| RRIRQRPPRLPRPRPRPTHRPRP | -0.000309 |
| RRIRNRPPRLPRPRPRPVFTPRP | -0.349 |
| RRIRQRPPRLPRPRPRPAQPPRP | 0.187 |
| RRIRHRPPRLPRPRPRPNGQPRP | 0.024 |
| RRIRTRPPRLPRPRPRPTDHPRP | -0.283 |
| RRIRDRPPRLPRPRPRPRDMPRP | -0.0954 |

| Sequence | shrunken log2 fold change |
| --- | --- |
| RRIRDRPPRLPRPRPRPLDHPRP | 0.0841 |
| RRIRQRPPRLPRPRPRPTHKPRP | 0.0649 |
| RRIRERPPRLPRPRPRPFTKPRP | -0.0421 |
| RRIRPRPPRLPRPRPRPCTMPRP | -0.191 |
| RRIRQRPPRLPRPRPRPQREPRP | 0.00728 |
| RRIRHRPPRLPRPRPRPREGPRP | 0.264 |
| RRIRKRPPRLPRPRPRPRQEPRP | 0.461 |
| RRIRQRPPRLPRPRPRPFAFPRP | 0.087 |
| RRIRIRPPRLPRPRPRPGPWPRP | 0.0988 |
| RRIRERPPRLPRPRPRPNGVPRP | -0.2 |
| RRIRGRPPRLPRPRPRPCCGPRP | 0.781 |
| RRIRKRPPRLPRPRPRPYLEPRP | 0.0252 |
| RRIRARPPRLPRPRPRPHKPPRP | 0.148 |
| RRIRYRPPRLPRPRPRPESVPRP | -0.316 |
| RRIRTRPPRLPRPRPRPHRMPRP | -0.267 |
| RRIRQRPPRLPRPRPRPDRLPRP | -0.0692 |
| RRIRWRPPRLPRPRPRPFTPPRP | -0.0823 |
| RRIRMRPPRLPRPRPRPMSWPRP | 0.132 |
| RRIRMRPPRLPRPRPRPEPKPRP | 2.51 |
| RRIRWRPPRLPRPRPRPIWYPRP | -0.149 |
| RRIRMRPPRLPRPRPRPNHVPRP | -0.409 |
| RRIRARPPRLPRPRPRPGYQPRP | 0.0478 |
| RRIRQRPPRLPRPRPRPVHGPRP | -0.0392 |
| RRIRARPPRLPRPRPRPADAPRP | 0.473 |
| RRIRWRPPRLPRPRPRPHCSPRP | -0.00908 |

| Sequence | shrunken log2 fold change |
| --- | --- |
| RRIRTRPPRLPRPRPRPPHLPRP | 0.0444 |
| RRIRARPPRLPRPRPRPATKPRP | 0.531 |
| RRIRMRPPRLPRPRPRPNLHPRP | -0.0942 |
| RRIRQRPPRLPRPRPRPGPAPRP | 0.114 |
| RRIRGRPPRLPRPRPRPEMYPRP | 0.837 |
| RRIRKRPPRLPRPRPRPLSIPRP | -0.0931 |
| RRIRWRPPRLPRPRPRPSHIPRP | -0.241 |
| RRIRYRPPRLPRPRPRPWMCPRP | -0.0907 |
| RRIRTRPPRLPRPRPRPDTEPRP | -0.072 |
| RRIRFRPPRLPRPRPRPHSYPRP | -0.0495 |
| RRIRMRPPRLPRPRPRPICMPRP | 0.024 |
| RRIRIRPPRLPRPRPRPDFFPRP | -0.415 |
| RRIRGRPPRLPRPRPRPILIPRP | 0.191 |
| RRIRTRPPRLPRPRPRPECQPRP | 0.0443 |
| RRIRARPPRLPRPRPRPELSPRP | 0.0862 |
| RRIRKRPPRLPRPRPRPMVPPRP | -0.043 |
| RRIRGRPPRLPRPRPRPQHMPRP | 0.231 |
| RRIRERPPRLPRPRPRPYRIPRP | -0.0789 |
| RRIRFRPPRLPRPRPRPKSLPRP | 0.0638 |
| RRIRNRPPRLPRPRPRPHSAPRP | -0.0468 |
| RRIRCRPPRLPRPRPRPKGDPRP | -0.0659 |
| RRIRFRPPRLPRPRPRPGPVPRP | 0.266 |
| RRIRQRPPRLPRPRPRPYESPRP | -0.261 |
| RRIRNRPPRLPRPRPRPFPHPRP | -0.0462 |
| RRIRFRPPRLPRPRPRPYPYPRP | -0.1 |

| Sequence | shrunken log2 fold change |
| --- | --- |
| RRIRKRPPRLPRPRPRPVMDPRP | -0.0489 |
| RRIRLRPPRLPRPRPRPREIPRP | 0.0725 |
| RRIRMRPPRLPRPRPRPKTQPRP | 0.971 |
| RRIRPRPPRLPRPRPRPLFHPRP | -0.131 |
| RRIRRRPPRLPRPRPRPSFQPRP | 0.0356 |
| RRIRQRPPRLPRPRPRPQAGPRP | -0.158 |
| RRIRDRPPRLPRPRPRPSQMPRP | 0.0862 |
| RRIRFRPPRLPRPRPRPSSNPRP | -0.715 |
| RRIRLRPPRLPRPRPRPIGLPRP | 0.00285 |
| RRIRKRPPRLPRPRPRPRNCPRP | 0.0613 |
| RRIRCRPPRLPRPRPRPWFTPRP | -0.879 |
| RRIRHRPPRLPRPRPRPEKWPRP | -0.0863 |
| RRIRARPPRLPRPRPRPRPFPRP | 0.562 |
| RRIRDRPPRLPRPRPRPDPQPRP | 0.209 |
| RRIRYRPPRLPRPRPRPFYVPRP | -0.602 |
| RRIRGRPPRLPRPRPRPVFNPRP | 0.155 |
| RRIRHRPPRLPRPRPRPYELPRP | -0.116 |
| RRIRYRPPRLPRPRPRPNPQPRP | -0.0909 |
| RRIRPRPPRLPRPRPRPTMAPRP | 0.502 |
| RRIRARPPRLPRPRPRPVVNPRP | 0.346 |
| RRIRGRPPRLPRPRPRPNRIPRP | 0.281 |
| RRIRWRPPRLPRPRPRPCQSPRP | -0.098 |
| RRIRLRPPRLPRPRPRPEDIPRP | -0.539 |
| RRIRHRPPRLPRPRPRPSFIPRP | -0.619 |
| RRIRCRPPRLPRPRPRPFTLPRP | -0.048 |

Source: the supplement of paper PMC9112550, “Optimization of the antimicrobial peptide Bac7 by deep mutational scanning” (BMC Biology, 2022)
